Laboratory results from patent publication US20180280504A1, “GLYCAN-INTERACTING COMPOUNDS AND METHODS OF USE” (SIAMAB THERAPEUTICS, INC., priority 2014, published 2018).

Tests used:
[1] = PAA-glycan ELISA, AcSTn-PAA; type: binding; settings: 200 ng/well PAA antigen; 1:5 dilutions from 1 μM
Protocol: (§1) 18D2 and 18C7 antibodies were further characterized by ELISA comprising antigens other than BSM. ELISAs were carried out according to Example 2, with the exception that ELISA plates were coated with biotinylated polyacrylamide (PAA) particles comprising either AcSTn (AcSTn-PAA), GcSTn (GcSTn-PAA) or Tn (Tn-PAA) as antigens. These particles present the antigens in a multivalent format. Briefly, 96-well ELISA plates were coated with 200 ng/well of each PAA antigen and blocked with PBS with 1% OVA. Antibodies were serially diluted at 1:5 in PBS with 1% OVA using an initial concentration of 1 μM. After blocking, antibodies were added to the plates and plates were incubated for 1.5 hours at room temperature. Binding of anti-STn antibodies was detected using a goat anti-mouse IgG-HRP conjugated antibody (Jackson Immunoresearch Laboratories, West Grove, Pa.). The reaction was developed by addition of HRP substrate and hydrogen peroxide. The reaction was then stopped by the addition of sulfuric acid (1.6 M). Optical densities were measured at 490 nm. A dose-response curve was generated using readings at each concentration tested and a non-linear regression curve was generated with four-parameter modeling to determine EC50 values for each antibody.

[2] = PAA-glycan ELISA, GcSTn-PAA; type: binding; settings: 200 ng/well PAA antigen; 1:5 dilutions from 1 μM
Protocol: as §1

[3] = Glycan array, 9-O-acetylated AcSTn; type: binding; settings: glycan microarray, Cy3 anti-mouse IgG
Protocol: Optimized glycan arrays comprise 71 chemically synthesized and well-defined glycans, most of which comprise Neu5Ac and Neu5Gc glycan pairs.
300 ml of epoxy blocking buffer is prepared by combining 15 ml of 2 M Tris buffer (pH 8) with 0.9 ml of 16.6 M ethanolamine and 284.1 ml of distilled water. The solution was brought to a final pH of 9.0 with HCl. The solution is filtered using a 0.2 μM nitrocellulose membrane. The epoxy buffer solution as well as 1 L of distilled water are pre-warmed to 50° C. Glass slides are arranged in a slide holder and quickly submerged in a staining tub with the warmed epoxy blocking buffer. Slides are incubated in the epoxy blocking buffer for 1 hour at 50° C. with periodic shaking to deactivate epoxy binding sites. Next, slides are rinsed and blocked with PBS with 1% OVA at 25° C. for one hour. Serum samples with polyclonal antibodies (1:1000) or purified monoclonal antibodies (1 ug/mL), are diluted in PBS with 1% OVA and added to the glycan array for one hour at 25° C. After extensive washing, binding of antibodies are detected by incubating glycan microarray slides with Cy3-conjugated anti-mouse IgG (Jackson Immunoresearch, West Grove, Pa.) for one hour. Slides are then washed extensively, dried and scanned with a Genepix 4000B scanner (Laser at 100%; gain at 350; 10 μm pixels). […]

[4] = E3-STn allograft model, average weight of mice; type: in vivo, mouse
Protocol: Balb/c mice were used as part of the test system. 50 female mice were inoculated with E3-STn cells to cause STn-expressing tumor formation. Mice were maintained under pathogen-free conditions with irradiated feed and autoclaved water.
The average weight of mice in each treatment group was also determined on days 1, 4, 6, 8, 11, 13, 15, 18, 20, 22, 26, 27, 29, 32, 34, 36, 39 and 41 following the first administration of each test article (see the following Table). The percent gain or loss over initial weight values is listed in parentheses.

[5] = system: MDA-MB-231-STn Human Breast Tumor Xenograft; assay: MDA-MB-231-STn human breast cancer xenograft model, tumor volume; type: in vivo, mouse; settings: 5 mg/kg i.p. once weekly
From the text: To evaluate antibody drug conjugates (ADCs) as single agents in an MDA-MB-231-STn Human Breast Tumor Xenograft model, 40 ICR SCID female mice age range 6-8 weeks were randomly separated into four separate groups, one vehicle control and three ADC treatments, then maintained individually with food/water ad libitum (see the following Table).
Animals were inoculated in the subcutaneous right flank with 5×10^6 breast tumor cells (MDA-MB-231-STn) in matrigel, mean tumor size was 175-225 mm^3 at study initiation. Animals were given either vehicle or antibody drug conjugates (5 mg/kg) by intraperitoneal injection once weekly. Tumor volume and percent body weight change were determined once weekly until study termination. The study was terminated when the tumor in the vehicle control animal reached a mean tumor weight ≥1500 mm^3. SE refers to “standard error.”

B1: 18C7: anti-STn mouse monoclonal, IgG2c κ, from mouse #4436; VH SEQ ID NO: 4, VL SEQ ID NO: 5 (antibody, V domains shown)
VH: QVTLKESGPGILQPSQTLSLTCSFSGFSLSTFGMGVGWIRQPSGKGLEWLAHIWWDDDKYYNPALKSRLTISKDTSKNQVFLKIANVDTADTATYYCARIAYYYGSERDYWGQGTTLTVSS
VL: QIVLTQSPAIMSASPGEKVTMTCSASSSISYMHWYHQKPGTSPKRWIYDTSKLASGVPARFSGSGSGTSYSLTISSMEAEDAATYYCHQRSSYTFGGGTKLEIKR
EC50 [1]: 4.1 nM
EC50 [2]: 2.59 nM
mean fluorescence intensity, Neu5,9Ac2-α2,6-GalNAc [3]: about 4,500

B2: 7G9: anti-STn mouse monoclonal, IgG2b κ, from mouse #4407; VH SEQ ID NO: 12, VL SEQ ID NO: 9 (antibody, V domains shown)
VH: QVQLKESGPGLVAPSQNLSITCTVSGFSLTSYGVNWVRQPPGKGLEWLGVIWGDGSTNYHSALISRLIISKENSKSQVFLKLNSLQTNDTATYYCTKGFVYWGQGTLVTVSA
VL: QIVLTQSPAIMSASPGEKVTMTCSASSSVSYMHWYQQKSGTSPKRWIFDTSKLASGVPARFSGSGSGTSYSLTISSMEAEDAATYYCQQWSSNLLTFGAGTKLELK
Average Weight ([4]; day 1 of study): 17.1 g
Average Weight ([4]; day 4 of study): 17.3 g
percent gain or loss over initial weight ([4]; day 4 of study): (1.7) %
Average Weight ([4]; day 6 of study): 18.2 g
percent gain or loss over initial weight ([4]; day 6 of study): (6.9) %
Average Weight ([4]; day 8 of study): 18.2 g
percent gain or loss over initial weight ([4]; day 8 of study): (6.5) %
Average Weight ([4]; day 11 of study): 18.3 g
percent gain or loss over initial weight ([4]; day 11 of study): (7.3) %
Average Weight ([4]; day 13 of study): 18.6 g
percent gain or loss over initial weight ([4]; day 13 of study): (8.9) %
Average Weight ([4]; day 15 of study): 18.7 g
percent gain or loss over initial weight ([4]; day 15 of study): (9.9) %
Average Weight ([4]; day 18 of study): 18.6 g
percent gain or loss over initial weight ([4]; day 18 of study): (9.0) %
Average Weight ([4]; day 20 of study): 18.9 g
percent gain or loss over initial weight ([4]; day 20 of study): (10.8) %
Average Weight ([4]; day 22 of study): 18.9 g
percent gain or loss over initial weight ([4]; day 22 of study): (11.1) %
Average Weight ([4]; day 26 of study): 19.0 g
percent gain or loss over initial weight ([4]; day 26 of study): (11.7) %
Average Weight ([4]; day 27 of study): 19.1 g
percent gain or loss over initial weight ([4]; day 27 of study): (11.9) %
Average Weight ([4]; day 29 of study): 19.4 g
percent gain or loss over initial weight ([4]; day 29 of study): (14.0) %
Average Weight ([4]; day 32 of study): 19.2 g
percent gain or loss over initial weight ([4]; day 32 of study): (12.6) %
Average Weight ([4]; day 34 of study): 19.5 g
percent gain or loss over initial weight ([4]; day 34 of study): (14.2) %
Average Weight ([4]; day 36 of study): 19.6 g
percent gain or loss over initial weight ([4]; day 36 of study): (14.8) %
Average Weight ([4]; day 39 of study): 20.2 g
percent gain or loss over initial weight ([4]; day 39 of study): (18.7) %
Average Weight ([4]; day 41 of study): 20.3 g
percent gain or loss over initial weight ([4]; day 41 of study): (19.2) %
percent gain in weight as compared to Paclitaxel and vehicle control ([4]; over the course of treatment): higher percent gain in weight

B3: S3F: 3F1 variable domains combined with IgG2a constant domains; heavy chain SEQ ID NO: 63, light chain SEQ ID NO: 64 (antibody)
heavy: QVQLQQSDAELVKPGASVKISCKASGYTFTDHAIHWVKQKPEQGLDWIGYISPGNGDIKYNEKFKDKVTLTADKSSSTACMHLNSLTSEDSAVYFCKRSLLALDYWGQGTTLTVSSAKTTAPSVYPLAPVCGDTTGSSVTLGCLVKGYFPEPVTLTWNSGSLSSGVHTFPAVLQSDLYTLSSSVTVTSSTWPSQSITCNVAHPASSTKVDKKIEPRGPTIKPCPPCKCPAPNLLGGPSVFIFPPKIKDVLMISLSPIVTCVVVDVSEDDPDVQISWFVNNVEVHTAQTQTHREDYNSTLRVVSALPIQHQDWMSGKEFKCKVNNKDLPAPIERTISKPKGSVRAPQVYVLPPPEEEMTKKQVTLTCMVTDFMPEDIYVEWTNNGKTELNYKNTEPVLDSDGSYFMYSKLRVEKKNWVERNSYSCSVVHEGLHNHHTTKSFSRTPGK
light: DIVMTQSHKFMSTSVGDRVSITCKASQDVGTNIAWYQQKPGRSPKVLIYSASTRHTGVPDRFTGSGSGTDFTLTISNVQSEDLTDYFCQQYSSFPLTFGVGTKLELKRADAAPTVSIFPPSSEQLTSGGASVVCFLNNFYPKDINVKWKIDGSERQNGVLNSWTDQDSKDSTYSMSSTLTLTKDEYERHNSYTCEATHKTSTSPIVKSFNRNEC
total tumor volume course ([5]; ICR SCID mice): increased at all time points
Tumor Volume ([5]; day 1): 178.6 mm^3
Tumor Volume ([5]; day 4): 194.3 mm^3
Tumor Volume ([5]; day 8): 244.9 mm^3
Tumor Volume ([5]; day 10): 301.0 mm^3
Tumor Volume ([5]; day 15): 445.1 mm^3
Tumor Volume ([5]; day 18): 609.7 mm^3
Tumor Volume ([5]; day 23): 775.4 mm^3
Tumor Volume ([5]; day 25): 972.7 mm^3
